Substrate in the data set “purified protein”: C[S+](CC[C@H](N)C(=O)O)C[C@H]1O[C@@H](n2cnc3c(N)ncnc32)[C@H](O)[C@@H]1O
Description: purified protein. The following applies: saturating ClNP 1.5 mM, 100 mM Tris pH 8.0, 37 °C, methyl donor.

Substrate in data set [1]: C[S+](CC[C@H](N)c1nn[nH]n1)C[C@H]1O[C@@H](n2cnc3c(N)ncnc32)[C@H](O)[C@@H]1O
Description: methyltransferase assay, HPLC / A410. It counts as biochemical, Streptomyces peucetius. Particulars: saturating ClNP 1.5 mM, 100 mM Tris pH 8.0, 37 °C, methyl donor.

B1: DnrK (Streptomyces peucetius) (protein)
chain: MTAEPTVAARPQQIDALRTLIRLGSLHTPMVVRTAATLRLVDHILAGARTVKALAARTDTRPEALLRLIRHLVAIGLLEEDAPGEFVPTEVGELLADDHPAAQRAWHDLTQAVARADISFTRLPDAIRTGRPTYESIYGKPFYEDLAGRPDLRASFDSLLACDQDVAFDAPAAAYDWTNVRHVLDVGGGKGGFAAAIARRAPHVSATVLEMAGTVDTARSYLKDEGLSDRVDVVEGDFFEPLPRKADAIILSFVLLNWPDHDAVRILTRCAEALEPGGRILIHERDDLHENSFNEQFTELDLRMLVFLGGALRTREKWDGLAASAGLVVEEVRQLPSPTIPYDLSLLVLAPAATGA
As to B1, in the data set “purified protein”, the Michaelis-Menten constant (Km) turned out to be 138 ± 7 µM and the kcat was 0.000283 s⁻¹. In addition, in data set [1], the Michaelis constant (Km) is 335 ± 40 µM and the kcat was 0.000517 ± 1.67e-05 s⁻¹.

For the origin of these results see article PMC5026608.
